Results on 1 protein are retold here after publication PMC7295030, “Aggregation pathways of human γ D crystallin induced by metal ions revealed by time dependent methods” (PeerJ, 2020).

The series deals with the molecule itself. The experiment in a line: dynamic light scattering; HγD 50 µM with 1.5 equivalents of CuSO4, 10 mM ammonium acetate pH 7.2, 50 mM NaCl, 37 °C, measured every 1.6 min during 12 h.

B1: Human γD crystallin (natural protein)
chain: GKITLYEDRGFQGRHYECSSDHPNLQPYLSRCNSARVDSGCWMLYEQPNYSGLQYFLRRGDYADHQQWMGLSDSVRSCRLIPHSGSHRIRLYEREDYRGQMIEFTEDCSCLQDRFRFNEIHSLNVLEGSWVLYELSNYRGRQYLLMPGDYRRYQDWGATNARVGSLRRVIDFS
notes: Human γD crystallin (HγD), UniProt P07320; Only the vector pET16b is named; For NMR the protein was 15N-labelled (1H-15N HSQC); also called HγD; human gamma D crystallin; source: E. coli BL21-RIL (plasmid pET16b-HγD), purified (Q-Sepharose, Sephadex 200)
With B1, the binding result is on record as “binds”.
